Columns and labels:
[1] = target: T1, glutamine synthetase (TcGS) (Trypanosoma cruzi, UniProt Q4CN04); test: enzyme inhibition kinetics of purified recombinant TcGS; type: biochemical
T1 construct: gene Tc00.1047053503405.10; recombinant His6-tagged TcGS (TcCLB.503405.10 starting at base pair 123), expressed in E. coli

[2] = target: recombinant Trypanosoma cruzi glutamine synthetase (TcGS), His6-tagged (Trypanosoma cruzi); test: SEC; analytical size-exclusion chromatography of recombinant TcGS (elutions of the Ni-NTA column); mass estimated from a calibration of the column; TcGS followed in the fractions by Bradford, dot-blot, ELISA and GS activity
N[C@@H](CCC(=O)O)C(=O)O = test: purified protein; conditions: Mg2+
[3] = test system: Nc1ncnc2c1ncn2[C@@H]1O[C@H](COP(=O)(O)OP(=O)(O)OP(=O)(O)O)[C@@H](O)[C@H]1O; test: purified protein; conditions: Mg2+

Compound `CS(=N)(=O)CCC(N)C(=O)O` (centres unmarked) [MS, Methionine sulfoximine] has a Ki [1] of 3.89 ± 0.04 µM.
“recombinant Trypanosoma cruzi glutamine synthetase (TcGS), His6-tagged (enzyme)” was tested, and the stoichiometry N [2] was 8.
With “glutamine synthetase (TcGS) (Trypanosoma cruzi strain CL Brener)” the Km (N[C@@H](CCC(=O)O)C(=O)O) was 440 ± 60 µM, the kcat (N[C@@H](CCC(=O)O)C(=O)O) was 392 ± 9.5 s⁻¹ and the kcat/Km (N[C@@H](CCC(=O)O)C(=O)O) was 890000 M⁻¹ s⁻¹. For the same compound, the Km [3] was 380 ± 100 µM, the kcat [3] was 396 ± 18.2 s⁻¹ and the kcat/Km [3] was 1.05e+06 M⁻¹ s⁻¹.

Source: PMC5779702, “The glutamine synthetase of Trypanosoma cruzi is required for its resistance to ammonium accumulation and evasion of the parasitophorous vacuole during host-cell infection” (PLoS Neglected Tropical Diseases, 2018)
